Common to all, as to test: ELISA; plates coated with 100 nM ECM protein in PBS (1 h, 37 °C), blocked with 1% BSA in PBS-T; PDGF-BB or IL-1Ra variants at increasing concentrations in PBS-T with 0.1% BSA, 1 h at room temperature; detected with biotinylated antibodies; one site specific binding model; n = 3
In experiment [1] the target is human plasma fibronectin (human).
The next experiment has as its target human tenascin C (human) (UniProt P24821).
Experiment [2] has as its target human vitronectin (human) (UniProt P04004).

Sequence of human tenascin C (human) (P24821 23-2201): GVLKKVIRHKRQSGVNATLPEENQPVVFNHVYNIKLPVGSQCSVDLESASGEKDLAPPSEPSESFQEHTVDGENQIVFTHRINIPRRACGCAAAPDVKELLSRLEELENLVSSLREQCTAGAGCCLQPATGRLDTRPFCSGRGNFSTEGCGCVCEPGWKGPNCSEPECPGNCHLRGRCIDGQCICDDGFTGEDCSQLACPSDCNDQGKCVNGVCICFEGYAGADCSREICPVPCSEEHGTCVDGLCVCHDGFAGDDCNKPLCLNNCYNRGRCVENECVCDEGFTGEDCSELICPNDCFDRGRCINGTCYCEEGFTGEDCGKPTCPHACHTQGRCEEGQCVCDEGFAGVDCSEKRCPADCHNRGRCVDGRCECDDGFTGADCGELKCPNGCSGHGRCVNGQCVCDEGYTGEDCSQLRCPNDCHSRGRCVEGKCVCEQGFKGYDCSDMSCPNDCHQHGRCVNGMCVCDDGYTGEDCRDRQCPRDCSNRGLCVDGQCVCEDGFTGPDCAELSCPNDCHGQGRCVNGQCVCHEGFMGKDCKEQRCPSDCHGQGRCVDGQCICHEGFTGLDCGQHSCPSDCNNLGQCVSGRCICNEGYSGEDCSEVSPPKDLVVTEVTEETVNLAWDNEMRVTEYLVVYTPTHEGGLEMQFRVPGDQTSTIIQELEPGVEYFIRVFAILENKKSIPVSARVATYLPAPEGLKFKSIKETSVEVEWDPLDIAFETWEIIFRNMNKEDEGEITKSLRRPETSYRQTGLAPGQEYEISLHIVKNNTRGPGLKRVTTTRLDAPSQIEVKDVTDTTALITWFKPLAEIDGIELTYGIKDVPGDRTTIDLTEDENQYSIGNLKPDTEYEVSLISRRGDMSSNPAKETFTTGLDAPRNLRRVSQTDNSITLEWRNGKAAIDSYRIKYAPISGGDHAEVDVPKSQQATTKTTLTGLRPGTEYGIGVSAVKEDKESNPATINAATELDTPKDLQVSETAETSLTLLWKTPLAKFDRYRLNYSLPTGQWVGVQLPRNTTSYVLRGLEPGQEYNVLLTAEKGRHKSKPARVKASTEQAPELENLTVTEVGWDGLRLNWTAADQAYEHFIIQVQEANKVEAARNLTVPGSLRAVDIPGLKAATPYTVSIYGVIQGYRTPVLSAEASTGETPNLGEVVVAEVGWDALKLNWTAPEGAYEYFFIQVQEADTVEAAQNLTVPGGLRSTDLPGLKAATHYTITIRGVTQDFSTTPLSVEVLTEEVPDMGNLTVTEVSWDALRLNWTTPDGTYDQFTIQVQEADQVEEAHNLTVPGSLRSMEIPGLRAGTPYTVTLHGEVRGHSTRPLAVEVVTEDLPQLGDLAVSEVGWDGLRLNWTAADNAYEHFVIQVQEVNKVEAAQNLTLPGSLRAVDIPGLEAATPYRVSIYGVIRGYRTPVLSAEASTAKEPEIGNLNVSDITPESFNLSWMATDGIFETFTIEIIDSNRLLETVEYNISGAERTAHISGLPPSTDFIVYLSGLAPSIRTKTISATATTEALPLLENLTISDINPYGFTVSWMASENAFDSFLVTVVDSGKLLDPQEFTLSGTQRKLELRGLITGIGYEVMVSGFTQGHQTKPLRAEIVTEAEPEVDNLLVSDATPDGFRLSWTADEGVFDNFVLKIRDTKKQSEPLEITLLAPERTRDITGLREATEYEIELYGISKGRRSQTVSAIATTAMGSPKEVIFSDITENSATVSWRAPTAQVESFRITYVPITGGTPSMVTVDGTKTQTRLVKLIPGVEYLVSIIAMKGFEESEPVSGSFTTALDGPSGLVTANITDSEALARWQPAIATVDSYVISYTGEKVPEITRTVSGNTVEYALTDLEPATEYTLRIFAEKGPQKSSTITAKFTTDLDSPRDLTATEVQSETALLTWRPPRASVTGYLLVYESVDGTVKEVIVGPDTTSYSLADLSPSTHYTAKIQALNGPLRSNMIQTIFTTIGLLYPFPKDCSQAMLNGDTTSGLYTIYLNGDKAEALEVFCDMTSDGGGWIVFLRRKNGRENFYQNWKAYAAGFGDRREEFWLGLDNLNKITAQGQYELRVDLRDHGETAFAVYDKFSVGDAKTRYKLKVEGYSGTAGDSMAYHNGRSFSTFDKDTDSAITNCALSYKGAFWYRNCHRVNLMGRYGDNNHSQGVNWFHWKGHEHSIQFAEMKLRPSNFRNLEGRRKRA
Sequence of human vitronectin (human) (P04004 20-478): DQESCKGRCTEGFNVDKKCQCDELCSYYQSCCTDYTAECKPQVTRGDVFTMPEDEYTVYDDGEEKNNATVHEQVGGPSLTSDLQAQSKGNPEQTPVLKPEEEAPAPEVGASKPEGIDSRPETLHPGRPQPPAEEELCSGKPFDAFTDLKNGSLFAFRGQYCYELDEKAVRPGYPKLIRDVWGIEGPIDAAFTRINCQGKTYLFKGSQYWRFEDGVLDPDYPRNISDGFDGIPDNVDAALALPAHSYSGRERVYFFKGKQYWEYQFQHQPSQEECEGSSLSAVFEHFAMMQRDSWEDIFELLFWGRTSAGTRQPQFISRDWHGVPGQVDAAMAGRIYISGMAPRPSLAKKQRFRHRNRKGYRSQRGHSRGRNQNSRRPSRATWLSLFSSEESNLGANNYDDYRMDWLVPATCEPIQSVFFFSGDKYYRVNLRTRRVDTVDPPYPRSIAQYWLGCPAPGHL

What is called Kd is the equilibrium constant for the complex coming apart. Low readings indicate higher affinity, high ones lower affinity. Take AREG26-38/PDGF-BB: the figures for the Kd (in experiment [1]; with human tenascin C (human); in experiment [2]) were 0.0059 µM, 0.0193 µM and 0.0013 µM, respectively.

In the case of AREG26-38/IL-1Ra, the Kd in experiment [1] was determined as 0.0165 µM; in the experiment with human tenascin C (human), 0.0186 µM; in experiment [2], 0.0019 µM.

(Values after paper PMC10202959.)
